Values of other authors, collected in article PMC6155283.
Where “and” joins values, the source holds several entries; their conditions need not be identical. Equal values may be shown once.

Target: GRα (Homo sapiens) (UniProt P04150)

Kd: 7.4 µM and 3 µM
Substance: GRα (from UniProt P04150)
